Test results published in US20130280279A1, “PHARMACEUTICAL COMPOSITION OF A COMPLEX OF AN ANTI-DIG ANTIBODY AND DIGOXIGENIN THAT IS CONJUGATED TO A PEPTIDE” (HOFFMANN-LA ROCHE INC., priority 2011, published 2013).

Molecular target: human NPY2 receptor on HEK293/hNPY2R cells (human) (UniProt P49146)
Assay: cell-based or functional assay

PYY(3-36) (peptide)
IC50 value of the cAMP assay (inhibition of Forskolin stimulated cAMP accumulation in HEK293/hNPY2R cells): 0.012 nM
